Assay results: article PMC5856483

Molecular target: FITC-Dsn1 560-572 synthetic peptide (S. cerevisiae) (S. cerevisiae)
Assay: fluorescence polarisation

Kd: 12 µM
Substance: S. cerevisiae Spc24 155-213/Spc25 132-221 heterodimer (from UniProt Q04477 155-213; P40014 132-221) (complex)
